This note sets out measurements from publication PMC9408429, “Thermodynamic Swings: How Ideal Complex of Cas9–RNA/DNA Forms”.

This data set deals with Cas9 (UniProt Q99ZW2 1-1368). The data set is described as follows: ITC; RNA 62.5 uM into Cas9 5 uM; n = 2.10; triplicate; dH -399.10 kcal/mol; ITC, 20 mM HEPES pH 7.6, 150 mM NaCl, 25 °C, 200 rpm; no Mg2+ listed. Particulars: protein: recombinant; intramolecular helices; dimer possible. A general note: ITC needs no label: the signal is the heat of the interaction.
Cas9, sequence (Q99ZW2 whole entry): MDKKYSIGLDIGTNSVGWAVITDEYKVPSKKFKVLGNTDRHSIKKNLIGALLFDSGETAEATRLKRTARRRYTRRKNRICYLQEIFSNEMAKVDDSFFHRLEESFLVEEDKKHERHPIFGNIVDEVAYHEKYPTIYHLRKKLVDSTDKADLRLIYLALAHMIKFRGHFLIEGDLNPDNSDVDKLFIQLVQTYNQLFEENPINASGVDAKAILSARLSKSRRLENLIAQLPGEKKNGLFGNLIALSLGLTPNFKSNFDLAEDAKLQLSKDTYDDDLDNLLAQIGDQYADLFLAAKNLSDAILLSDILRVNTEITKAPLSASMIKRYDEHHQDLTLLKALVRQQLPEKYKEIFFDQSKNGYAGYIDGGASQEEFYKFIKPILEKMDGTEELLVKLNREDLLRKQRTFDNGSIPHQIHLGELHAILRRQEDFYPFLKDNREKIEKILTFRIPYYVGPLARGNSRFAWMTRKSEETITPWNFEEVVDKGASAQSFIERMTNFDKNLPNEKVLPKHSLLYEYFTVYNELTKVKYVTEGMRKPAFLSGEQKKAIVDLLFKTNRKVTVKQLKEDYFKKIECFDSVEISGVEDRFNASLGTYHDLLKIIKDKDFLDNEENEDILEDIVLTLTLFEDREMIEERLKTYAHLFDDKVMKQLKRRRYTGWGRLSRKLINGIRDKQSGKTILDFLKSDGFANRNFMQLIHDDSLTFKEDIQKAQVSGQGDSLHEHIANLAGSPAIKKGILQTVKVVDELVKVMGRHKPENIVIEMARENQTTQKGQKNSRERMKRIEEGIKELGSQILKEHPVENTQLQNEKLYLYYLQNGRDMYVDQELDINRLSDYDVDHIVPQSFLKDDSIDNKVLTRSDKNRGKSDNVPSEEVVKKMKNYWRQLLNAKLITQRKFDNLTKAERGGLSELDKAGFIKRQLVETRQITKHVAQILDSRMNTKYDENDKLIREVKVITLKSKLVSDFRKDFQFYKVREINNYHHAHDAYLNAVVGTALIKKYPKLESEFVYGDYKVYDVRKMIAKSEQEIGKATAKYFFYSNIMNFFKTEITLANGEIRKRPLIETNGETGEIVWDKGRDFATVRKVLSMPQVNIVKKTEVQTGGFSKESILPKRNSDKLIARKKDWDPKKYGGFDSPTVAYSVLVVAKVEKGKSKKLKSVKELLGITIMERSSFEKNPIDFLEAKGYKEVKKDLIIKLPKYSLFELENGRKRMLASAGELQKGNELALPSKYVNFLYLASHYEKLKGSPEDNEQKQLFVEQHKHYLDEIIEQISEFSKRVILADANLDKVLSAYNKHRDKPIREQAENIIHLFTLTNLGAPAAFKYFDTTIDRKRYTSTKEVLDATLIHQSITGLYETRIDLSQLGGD

B1: RNA (sgRNA) (structured_RNA)
RNA: GGUUGGACAUGCUCGACAUUCGUUUUAGAGCUAGAAAUAGCAAGUUAAAAUAAGGCUAGUCCGUUAUCAACUUGAAAAAGUGGCACCGAGUCGGUGCUUUUUU
Regarding B1, the Kd was 2210 nM.

In general, Kd refers to the equilibrium constant for the complex coming apart.
